These results are taken from patent US20220213163A1.

This assay has as its target IL-2 receptor (IL-2R) on CTLL-2 cells. The assay is described as follows: cell-based or functional assay.

“Proleukin (recombinant human IL-2, Novartis Pharma GmbH; the Aldesleukin drug employed in the clinic) (from UniProt P60568 22-153) (ligand)” yielded a mean effective dose (ED50), CTLL-2 proliferation (MTT assay) of 0.34 ng/mL.
